Experimental data taken from patent US20190338009A1 (ZEALAND PHARMA A S, published 2019).
Each block holds one binder with its values, some of them ahead of it. Square brackets hold non-standard residues; d marks the D form. Aib = CC(C)(N)C(=O)O

Legend:
[1] = biological target: human glucagon-like peptide 1 receptor (GLP-1R) (human, UniProt P43220 24-463); experiment: cell-based or functional assay
[2] = biological target: T1, human GLP-2 receptor (hGLP2-R) (human, UniProt O95838 1-553); experiment: cell-based or functional assay
T1 sequence (looked up): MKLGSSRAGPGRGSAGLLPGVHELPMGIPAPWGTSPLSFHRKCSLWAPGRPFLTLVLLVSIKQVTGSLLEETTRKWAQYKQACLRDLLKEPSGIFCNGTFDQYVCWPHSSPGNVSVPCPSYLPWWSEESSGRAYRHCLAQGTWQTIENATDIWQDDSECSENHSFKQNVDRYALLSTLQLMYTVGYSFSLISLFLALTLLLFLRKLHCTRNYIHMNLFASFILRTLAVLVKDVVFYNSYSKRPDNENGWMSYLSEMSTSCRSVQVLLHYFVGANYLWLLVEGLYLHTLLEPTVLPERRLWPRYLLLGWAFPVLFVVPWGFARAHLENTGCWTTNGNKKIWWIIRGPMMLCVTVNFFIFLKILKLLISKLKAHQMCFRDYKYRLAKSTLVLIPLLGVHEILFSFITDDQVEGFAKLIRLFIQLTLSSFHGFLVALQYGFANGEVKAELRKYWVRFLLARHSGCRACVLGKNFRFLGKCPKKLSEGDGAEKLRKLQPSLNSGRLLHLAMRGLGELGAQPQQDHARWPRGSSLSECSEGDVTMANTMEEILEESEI

B3: Compound 8 (peptide)
peptide: H-H[Aib]EGSFTSELATILDEQAARDFIAWLILHKITD-OH
SMILES: CC[C@H](C)[C@H](NC(=O)[C@H](Cc1ccccc1)NC(=O)[C@H](CC(=O)O)NC(=O)[C@H](CCCNC(=N)N)NC(=O)[C@H](C)NC(=O)[C@H](C)NC(=O)[C@H](CCC(N)=O)NC(=O)[C@H](CCC(=O)O)NC(=O)[C@H](CC(=O)O)NC(=O)[C@H](CC(C)C)NC(=O)[C@@H](NC(=O)[C@@H](NC(=O)[C@H](C)NC(=O)[C@H](CC(C)C)NC(=O)[C@H](CCC(=O)O)NC(=O)[C@H](CO)NC(=O)[C@@H](NC(=O)[C@H](Cc1ccccc1)NC(=O)[C@H](CO)NC(=O)CNC(=O)[C@H](CCC(=O)O)NC(=O)C(C)(C)NC(=O)[C@@H](N)Cc1c[nH]cn1)[C@@H](C)O)[C@@H](C)O)[C@@H](C)CC)C(=O)N[C@@H](C)C(=O)N[C@@H](Cc1c[nH]c2ccccc12)C(=O)N[C@@H](CC(C)C)C(=O)N[C@H](C(=O)N[C@@H](CC(C)C)C(=O)N[C@@H](Cc1c[nH]cn1)C(=O)N[C@@H](CCCCN)C(=O)N[C@H](C(=O)N[C@H](C(=O)N[C@@H](CC(=O)O)C(=O)O)[C@@H](C)O)[C@@H](C)CC)[C@@H](C)CC
- EC50 GLP-1 (nM); cAMP AlphaScreen, HEK293 cells expressing human GLP-1R [1]: 0.021 nM
- EC50 GLP-2 (nM); cAMP AlphaScreen, HEK293 cells expressing human GLP-2R [2]: 0.084 nM

B4: Compound 4 (peptide)
peptide: H-H[Aib]EGSFTSELATILDEQAARDFIAWLIEHKITD-OH
SMILES: CC[C@H](C)[C@H](NC(=O)[C@H](Cc1ccccc1)NC(=O)[C@H](CC(=O)O)NC(=O)[C@H](CCCNC(=N)N)NC(=O)[C@H](C)NC(=O)[C@H](C)NC(=O)[C@H](CCC(N)=O)NC(=O)[C@H](CCC(=O)O)NC(=O)[C@H](CC(=O)O)NC(=O)[C@H](CC(C)C)NC(=O)[C@@H](NC(=O)[C@@H](NC(=O)[C@H](C)NC(=O)[C@H](CC(C)C)NC(=O)[C@H](CCC(=O)O)NC(=O)[C@H](CO)NC(=O)[C@@H](NC(=O)[C@H](Cc1ccccc1)NC(=O)[C@H](CO)NC(=O)CNC(=O)[C@H](CCC(=O)O)NC(=O)C(C)(C)NC(=O)[C@@H](N)Cc1c[nH]cn1)[C@@H](C)O)[C@@H](C)O)[C@@H](C)CC)C(=O)N[C@@H](C)C(=O)N[C@@H](Cc1c[nH]c2ccccc12)C(=O)N[C@@H](CC(C)C)C(=O)N[C@H](C(=O)N[C@@H](CCC(=O)O)C(=O)N[C@@H](Cc1c[nH]cn1)C(=O)N[C@@H](CCCCN)C(=O)N[C@H](C(=O)N[C@H](C(=O)N[C@@H](CC(=O)O)C(=O)O)[C@@H](C)O)[C@@H](C)CC)[C@@H](C)CC
- EC50 GLP-1 (nM); cAMP AlphaScreen, HEK293 cells expressing human GLP-1R [1]: 0.015 nM
- EC50 GLP-2 (nM); cAMP AlphaScreen, HEK293 cells expressing human GLP-2R [2]: 0.044 nM

B5: Teduglutide (peptide)
peptide: HGDGSFSDEMNTILDNLAARDFINWLIQTKITD
- EC50 GLP-1 (nM); cAMP AlphaScreen, HEK293 cells expressing human GLP-1R [1]: 39 nM

B8: Compound 3 (peptide)
peptide: H-H[Aib]EGTFTSELATILDEQAARDFIAWLIAHKITD-OH
SMILES: CC[C@H](C)[C@H](NC(=O)[C@H](CC(C)C)NC(=O)[C@H](Cc1c[nH]c2ccccc12)NC(=O)[C@H](C)NC(=O)[C@@H](NC(=O)[C@H](Cc1ccccc1)NC(=O)[C@H](CC(=O)O)NC(=O)[C@H](CCCNC(=N)N)NC(=O)[C@H](C)NC(=O)[C@H](C)NC(=O)[C@H](CCC(N)=O)NC(=O)[C@H](CCC(=O)O)NC(=O)[C@H](CC(=O)O)NC(=O)[C@H](CC(C)C)NC(=O)[C@@H](NC(=O)[C@@H](NC(=O)[C@H](C)NC(=O)[C@H](CC(C)C)NC(=O)[C@H](CCC(=O)O)NC(=O)[C@H](CO)NC(=O)[C@@H](NC(=O)[C@H](Cc1ccccc1)NC(=O)[C@@H](NC(=O)CNC(=O)[C@H](CCC(=O)O)NC(=O)C(C)(C)NC(=O)[C@@H](N)Cc1c[nH]cn1)[C@@H](C)O)[C@@H](C)O)[C@@H](C)O)[C@@H](C)CC)[C@@H](C)CC)C(=O)N[C@@H](C)C(=O)N[C@@H](Cc1c[nH]cn1)C(=O)N[C@@H](CCCCN)C(=O)N[C@H](C(=O)N[C@H](C(=O)N[C@@H](CC(=O)O)C(=O)O)[C@@H](C)O)[C@@H](C)CC
- EC50 GLP-1 (nM); cAMP AlphaScreen, HEK293 cells expressing human GLP-1R [1]: 0.0074 nM
- EC50 GLP-2 (nM); cAMP AlphaScreen, HEK293 cells expressing human GLP-2R [2]: 0.036 nM

Now from value to binder:

- EC50 GLP-1 (nM); cAMP AlphaScreen, HEK293 cells expressing human GLP-1R [1]: 0.014 nM
- EC50 GLP-2 (nM); cAMP AlphaScreen, HEK293 cells expressing human GLP-2R [2]: 0.047 nM
B1: Compound 6 (peptide)
peptide: H-H[Aib]EGSFTSELATILDEQAARDFIAWLIHHKITD-OH
SMILES: CC[C@H](C)[C@H](NC(=O)[C@H](Cc1ccccc1)NC(=O)[C@H](CC(=O)O)NC(=O)[C@H](CCCNC(=N)N)NC(=O)[C@H](C)NC(=O)[C@H](C)NC(=O)[C@H](CCC(N)=O)NC(=O)[C@H](CCC(=O)O)NC(=O)[C@H](CC(=O)O)NC(=O)[C@H](CC(C)C)NC(=O)[C@@H](NC(=O)[C@@H](NC(=O)[C@H](C)NC(=O)[C@H](CC(C)C)NC(=O)[C@H](CCC(=O)O)NC(=O)[C@H](CO)NC(=O)[C@@H](NC(=O)[C@H](Cc1ccccc1)NC(=O)[C@H](CO)NC(=O)CNC(=O)[C@H](CCC(=O)O)NC(=O)C(C)(C)NC(=O)[C@@H](N)Cc1c[nH]cn1)[C@@H](C)O)[C@@H](C)O)[C@@H](C)CC)C(=O)N[C@@H](C)C(=O)N[C@@H](Cc1c[nH]c2ccccc12)C(=O)N[C@@H](CC(C)C)C(=O)N[C@H](C(=O)N[C@@H](Cc1c[nH]cn1)C(=O)N[C@@H](Cc1c[nH]cn1)C(=O)N[C@@H](CCCCN)C(=O)N[C@H](C(=O)N[C@H](C(=O)N[C@@H](CC(=O)O)C(=O)O)[C@@H](C)O)[C@@H](C)CC)[C@@H](C)CC

- EC50 GLP-1 (nM); cAMP AlphaScreen, HEK293 cells expressing human GLP-1R [1]: 0.017 nM
- EC50 GLP-2 (nM); cAMP AlphaScreen, HEK293 cells expressing human GLP-2R [2]: 0.11 nM
B2: Compound 7 (peptide)
peptide: H-H[Aib]EGSFTSELATILDEQAARDFIAWLIYHKITD-OH
SMILES: CC[C@H](C)[C@H](NC(=O)[C@H](Cc1ccccc1)NC(=O)[C@H](CC(=O)O)NC(=O)[C@H](CCCNC(=N)N)NC(=O)[C@H](C)NC(=O)[C@H](C)NC(=O)[C@H](CCC(N)=O)NC(=O)[C@H](CCC(=O)O)NC(=O)[C@H](CC(=O)O)NC(=O)[C@H](CC(C)C)NC(=O)[C@@H](NC(=O)[C@@H](NC(=O)[C@H](C)NC(=O)[C@H](CC(C)C)NC(=O)[C@H](CCC(=O)O)NC(=O)[C@H](CO)NC(=O)[C@@H](NC(=O)[C@H](Cc1ccccc1)NC(=O)[C@H](CO)NC(=O)CNC(=O)[C@H](CCC(=O)O)NC(=O)C(C)(C)NC(=O)[C@@H](N)Cc1c[nH]cn1)[C@@H](C)O)[C@@H](C)O)[C@@H](C)CC)C(=O)N[C@@H](C)C(=O)N[C@@H](Cc1c[nH]c2ccccc12)C(=O)N[C@@H](CC(C)C)C(=O)N[C@H](C(=O)N[C@@H](Cc1ccc(O)cc1)C(=O)N[C@@H](Cc1c[nH]cn1)C(=O)N[C@@H](CCCCN)C(=O)N[C@H](C(=O)N[C@H](C(=O)N[C@@H](CC(=O)O)C(=O)O)[C@@H](C)O)[C@@H](C)CC)[C@@H](C)CC

- EC50 GLP-1 (nM); cAMP AlphaScreen, HEK293 cells expressing human GLP-1R [1]: 0.0098 nM
- EC50 GLP-2 (nM); cAMP AlphaScreen, HEK293 cells expressing human GLP-2R [2]: 0.067 nM
B6: Compound 5 (peptide)
peptide: H-H[Aib]EGTFTSELATILDEQAARDFIAWLIEHKITD-OH
SMILES: CC[C@H](C)[C@H](NC(=O)[C@H](Cc1ccccc1)NC(=O)[C@H](CC(=O)O)NC(=O)[C@H](CCCNC(=N)N)NC(=O)[C@H](C)NC(=O)[C@H](C)NC(=O)[C@H](CCC(N)=O)NC(=O)[C@H](CCC(=O)O)NC(=O)[C@H](CC(=O)O)NC(=O)[C@H](CC(C)C)NC(=O)[C@@H](NC(=O)[C@@H](NC(=O)[C@H](C)NC(=O)[C@H](CC(C)C)NC(=O)[C@H](CCC(=O)O)NC(=O)[C@H](CO)NC(=O)[C@@H](NC(=O)[C@H](Cc1ccccc1)NC(=O)[C@@H](NC(=O)CNC(=O)[C@H](CCC(=O)O)NC(=O)C(C)(C)NC(=O)[C@@H](N)Cc1c[nH]cn1)[C@@H](C)O)[C@@H](C)O)[C@@H](C)O)[C@@H](C)CC)C(=O)N[C@@H](C)C(=O)N[C@@H](Cc1c[nH]c2ccccc12)C(=O)N[C@@H](CC(C)C)C(=O)N[C@H](C(=O)N[C@@H](CCC(=O)O)C(=O)N[C@@H](Cc1c[nH]cn1)C(=O)N[C@@H](CCCCN)C(=O)N[C@H](C(=O)N[C@H](C(=O)N[C@@H](CC(=O)O)C(=O)O)[C@@H](C)O)[C@@H](C)CC)[C@@H](C)CC

- EC50 GLP-1 (nM); cAMP AlphaScreen, HEK293 cells expressing human GLP-1R [1]: 0.007 nM
- EC50 GLP-2 (nM); cAMP AlphaScreen, HEK293 cells expressing human GLP-2R [2]: 0.041 nM
B7: Compound 9 (peptide)
peptide: H-H[Aib]EGTFTDELATILDEQAARDFIAWLIAHKITD-OH
SMILES: CC[C@H](C)[C@H](NC(=O)[C@H](CC(C)C)NC(=O)[C@H](Cc1c[nH]c2ccccc12)NC(=O)[C@H](C)NC(=O)[C@@H](NC(=O)[C@H](Cc1ccccc1)NC(=O)[C@H](CC(=O)O)NC(=O)[C@H](CCCNC(=N)N)NC(=O)[C@H](C)NC(=O)[C@H](C)NC(=O)[C@H](CCC(N)=O)NC(=O)[C@H](CCC(=O)O)NC(=O)[C@H](CC(=O)O)NC(=O)[C@H](CC(C)C)NC(=O)[C@@H](NC(=O)[C@@H](NC(=O)[C@H](C)NC(=O)[C@H](CC(C)C)NC(=O)[C@H](CCC(=O)O)NC(=O)[C@H](CC(=O)O)NC(=O)[C@@H](NC(=O)[C@H](Cc1ccccc1)NC(=O)[C@@H](NC(=O)CNC(=O)[C@H](CCC(=O)O)NC(=O)C(C)(C)NC(=O)[C@@H](N)Cc1c[nH]cn1)[C@@H](C)O)[C@@H](C)O)[C@@H](C)O)[C@@H](C)CC)[C@@H](C)CC)C(=O)N[C@@H](C)C(=O)N[C@@H](Cc1c[nH]cn1)C(=O)N[C@@H](CCCCN)C(=O)N[C@H](C(=O)N[C@H](C(=O)N[C@@H](CC(=O)O)C(=O)O)[C@@H](C)O)[C@@H](C)CC
